In patent publication US20130058960A1 (Genentech, published 2013):

T1: TAT425 polypeptide (Homo sapiens (Human), UniProt O15439 1-1325)
T1 construct: no signal peptide or domain limits are stated; also called TAT425 protein; polypeptide encoded by DNA340411
T1 sequence: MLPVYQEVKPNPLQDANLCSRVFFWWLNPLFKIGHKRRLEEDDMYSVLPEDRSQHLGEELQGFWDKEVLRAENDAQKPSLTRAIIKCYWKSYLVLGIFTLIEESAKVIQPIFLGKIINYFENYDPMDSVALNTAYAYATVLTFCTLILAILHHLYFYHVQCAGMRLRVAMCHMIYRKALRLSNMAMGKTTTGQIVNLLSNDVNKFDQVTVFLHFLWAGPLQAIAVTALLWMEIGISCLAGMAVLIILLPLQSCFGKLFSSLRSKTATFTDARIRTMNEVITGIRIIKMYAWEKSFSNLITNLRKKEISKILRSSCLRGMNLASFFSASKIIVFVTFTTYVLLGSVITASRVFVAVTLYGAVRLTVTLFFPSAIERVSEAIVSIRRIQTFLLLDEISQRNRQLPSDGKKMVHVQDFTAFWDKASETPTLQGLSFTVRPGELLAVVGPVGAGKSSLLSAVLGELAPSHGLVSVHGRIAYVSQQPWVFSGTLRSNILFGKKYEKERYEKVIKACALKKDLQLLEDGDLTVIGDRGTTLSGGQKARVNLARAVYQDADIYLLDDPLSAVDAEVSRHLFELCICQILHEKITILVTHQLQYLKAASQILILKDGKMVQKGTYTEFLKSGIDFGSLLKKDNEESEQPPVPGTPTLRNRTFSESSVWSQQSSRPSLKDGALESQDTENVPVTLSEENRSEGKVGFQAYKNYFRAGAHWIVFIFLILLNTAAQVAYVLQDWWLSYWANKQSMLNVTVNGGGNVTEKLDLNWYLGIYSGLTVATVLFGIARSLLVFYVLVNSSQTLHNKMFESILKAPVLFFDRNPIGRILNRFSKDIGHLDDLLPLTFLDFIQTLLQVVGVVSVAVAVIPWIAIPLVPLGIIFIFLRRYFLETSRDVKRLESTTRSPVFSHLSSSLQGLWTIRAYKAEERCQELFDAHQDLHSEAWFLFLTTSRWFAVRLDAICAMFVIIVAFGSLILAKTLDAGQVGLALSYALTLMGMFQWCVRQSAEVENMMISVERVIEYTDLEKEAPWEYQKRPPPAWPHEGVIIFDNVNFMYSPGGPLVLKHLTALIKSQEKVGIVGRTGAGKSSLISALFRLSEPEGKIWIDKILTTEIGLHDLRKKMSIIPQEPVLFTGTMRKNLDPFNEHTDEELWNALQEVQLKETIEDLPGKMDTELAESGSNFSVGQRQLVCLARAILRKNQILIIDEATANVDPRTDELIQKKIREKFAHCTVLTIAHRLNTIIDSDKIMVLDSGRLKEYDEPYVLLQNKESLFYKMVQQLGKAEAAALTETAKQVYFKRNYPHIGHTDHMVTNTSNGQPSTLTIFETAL

B1: anti-TAT425 monoclonal antibody 14E7.17.1 (antibody, V domains shown)
VH: QVQLKESGPGLVAPSQSLSITCTVSGFSLTTYGVSWVRQPPGKGLEWLGLIWGDGSINYHSALISRLSISKDNSKSQVFLKLNSLQTDDTATYYCAKGWGGLYVMDYWGQGTSVTVAS
VL: DIQMTQSPASLSASVGETVTITCRSSENIYSYLAWYQQKLGKSPQLLVYNAKTLAEGVPSRFSGSGSGTQFSLKIYSLQSADFGSYYCQHHFGSPPTFGGGTKLESKR
B2: anti-TAT425 monoclonal antibody 2E4.6.1 (antibody, V domains shown)
VH: EVQLQQSGAELVKPGASVKLSCTTSGFNIKDYYMQWVKQRTGQGLEWIGRIDPEDGETKNAPKFQGKATITADTSSNTAYLQLSSLTSEDTAVYFCAREGYYGNGYAMDYWGQGTSVTVSS
VL: DVLMTQTPLSLPVSLGDQASISCRSSQSIVHSNGNTYLDWYLQKPGQSPKLLIYKVSNRFSGVPDRFSGSGSGTDFTLKISRVEAEDLGVYYCFQGSHVPWTFGGGTKLEIKR
B3: anti-TAT425 monoclonal antibody 13H2.28.2 (antibody, V domains shown)
VH: QVQLQQPGAELVRPGASVKLSCKASGYSFTSYWMNWVRQRPGQGLEWIGMIHPSDSETRLNQKFKDKATLTVDKSSSTAYMQLSSPTSDDSAVYFCTREAITAVHFWGHGTTLTVSS
VL: QAVVTQESALTTSPGETVTLTCRSSTGAVTTSNYANWVQEKPDHLFTGLIGGTNNRAPGVPARFSGSLIGDKAALTITGAQTEDEAIYFCALWYSNHWVFGGGTKLTVLG

target: T1, TAT425 polypeptide; assay: Western blot, ELISA, FACS and/or immunohistochemistry on cells expressing TAT425

| binding result | Binder |
| --- | --- |
| binds | B1 |
| binds | B2 |
| binds | B3 |
